In the Human Domainome abundance scans (Beltran et al. 2025):
± gives the uncertainty stated by the source.

B1: Double-stranded RNA-specific adenosine deaminase, residues 296 to 358; numbered along this chain, P55265 (parent)
chain: MAEIKEKICDYLFNVSDSSALNLAKNIGLTKARDINAVLIDMERQGDVYRQGTTPPIWHLTDK
B2: COUP transcription factor 1, residues 83 to 159; numbered along this chain, P10589 (parent)
chain: HIECVVCGDKSSGKHYGQFTCEGCKSFFKRSVRRNLTYTCRANRNCPIDQHHRNQCQYCRLKKCLKVGMRREAVQRG

Variants of: B1
Experiment: abundance fitness (aPCA) (normalised: wild type 0, dead -1); higher = more abundant; growth selection in yeast, the domain comes from the species named
Conditions: Homo sapiens

Abundance fitness: each site, then its substitutions
G46: C -0.998 ± 0.12, R -0.902 ± 0.087, K -0.448 ± 0.082, L -0.974 ± 0.088, I -1.03 ± 0.21, W -1.15 ± 0.18, V -0.613 ± 0.073, Q -0.652 ± 0.12, E -0.66 ± 0.087, Y -1.06 ± 0.24, S -0.618 ± 0.072, M -0.498 ± 0.12, P -0.778 ± 0.1, N -0.827 ± 0.15, F -1.05 ± 0.22, T -0.856 ± 0.12
P55: A -0.243 ± 0.059, E -0.043 ± 0.058, K -0.49 ± 0.096, Y -0.491 ± 0.11, T -0.25 ± 0.059, Q -0.486 ± 0.086, H -0.435 ± 0.087, M -0.632 ± 0.12, F -0.396 ± 0.082, S -0.288 ± 0.057, D 0.06 ± 0.07, G -0.434 ± 0.05, W -0.721 ± 0.087, R -0.698 ± 0.075, N -0.006 ± 0.073, L -0.594 ± 0.068, I -0.547 ± 0.057, C -0.344 ± 0.1, V -0.298 ± 0.051
V48: I -0.139 ± 0.065, F -0.927 ± 0.17, W -0.692 ± 0.085, N -0.286 ± 0.091, D -0.335 ± 0.087, Y -0.862 ± 0.17, T -0.563 ± 0.069, P -0.507 ± 0.075, S -0.585 ± 0.073, A -0.284 ± 0.055, Q -0.743 ± 0.11, E -0.23 ± 0.089, C -0.389 ± 0.082, K -0.701 ± 0.11, H -0.574 ± 0.095
P56: T -0.013 ± 0.091, D -0.447 ± 0.19, V -0.099 ± 0.1, F -1.13 ± 0.29, L -0.656 ± 0.12, Q -0.541 ± 0.1, Y -0.693 ± 0.41, C -0.511 ± 0.35, R -0.686 ± 0.15, S -0.57 ± 0.094, I -0.263 ± 0.15, M -1.28 ± 0.34, K -0.539 ± 0.18, W -0.818 ± 0.24
Q45: P -0.912 ± 0.14, S 0.022 ± 0.038, K -0.492 ± 0.14, I -0.495 ± 0.065, E 0.022 ± 0.15, R -0.33 ± 0.055, C -0.053 ± 0.058, H -0.024 ± 0.055, N 0.033 ± 0.049, G -0.778 ± 0.12, V -0.075 ± 0.058, F -0.729 ± 0.082, T -0.097 ± 0.062, L -0.524 ± 0.068, A 0.145 ± 0.049, D 0.17 ± 0.06, Y -0.637 ± 0.081
D47: H -0.123 ± 0.071, G -0.881 ± 0.13, V 0.288 ± 0.047, A -0.117 ± 0.052, S -0.114 ± 0.051, F -0.177 ± 0.086, N -0.322 ± 0.094, T 0.205 ± 0.055, Y -0.068 ± 0.06, K 0.024 ± 0.07, R 0.046 ± 0.052, L 0.297 ± 0.045, Q 0.122 ± 0.058, C -0.096 ± 0.12, E 0.35 ± 0.049, W -0.234 ± 0.069, M 0.182 ± 0.054
H59: R 0.281 ± 0.036, G 0.215 ± 0.044, D -0.375 ± 0.081, C 0.095 ± 0.073, N -0.224 ± 0.058, T -0.052 ± 0.056, E -0.301 ± 0.092, I -0.525 ± 0.09, M -0.259 ± 0.073, F -0.329 ± 0.063, V -0.282 ± 0.048, W -0.972 ± 0.1, Q -0.175 ± 0.059, P -0.524 ± 0.062, K 0.294 ± 0.065, L -0.613 ± 0.063, S 0.263 ± 0.044, Y -0.466 ± 0.078, A 0.288 ± 0.048
T61: H -0.344 ± 0.26, R -0.282 ± 0.052, M -0.182 ± 0.062, W -0.808 ± 0.099, E -0.483 ± 0.1, D -0.32 ± 0.12, N -0.124 ± 0.075, S -0.052 ± 0.044, F -0.737 ± 0.14, Q -0.52 ± 0.076, I -0.818 ± 0.22, P -0.411 ± 0.073, V -0.193 ± 0.051

Variants of: B2
Experiment: as above
Conditions: Homo sapiens

Abundance fitness of substitutions, site by site:
E3: C -0.072 ± 0.083, G -0.402 ± 0.04, D 0.006 ± 0.063, N -0.222 ± 0.14, H -0.15 ± 0.17, M -0.07 ± 0.084, I -0.108 ± 0.12, F -0.173 ± 0.35, A -0.01 ± 0.044, K -0.226 ± 0.083
H1: T 0.074 ± 0.12, L 0.03 ± 0.14, C -0.258 ± 0.19, K 0.374 ± 0.25, E -0.007 ± 0.18, G 0.277 ± 0.087, N 0.07 ± 0.29, V -0.035 ± 0.15, D 0.6 ± 0.17, R 0.013 ± 0.088, Q 0.121 ± 0.12, S -0.33 ± 0.18, Y 0.262 ± 0.48, A -0.078 ± 0.21
I2: M -0.078 ± 0.1, N 0.05 ± 0.1, G -0.927 ± 0.17, A -0.829 ± 0.29, R -0.413 ± 0.094, E -0.379 ± 0.18, Q -0.714 ± 0.41, C -0.186 ± 0.47, D 0.065 ± 0.27, Y 0.237 ± 0.32, K -0.329 ± 0.22, V -0.648 ± 0.14, W -0.502 ± 0.17
